In assay [1] the target is purified α-dystroglycan (α-DG) (UniProt Q28685). The assay can be described thus: far-Western, overlay or dot blot.
Assay [2] has as its target low affinity viral binders. The experiment in a line: competitive inhibition binding assay.
The target in assay [3] is high affinity virus binders. The experiment in a line: competitive inhibition binding assay.

For the molecule “LCMV WE c54 (purified virus; viral glycoprotein GP1/GP2) (complex)”, the logs higher affinity than WE c2.2 in assay [1] is 3 logs.

B1: soluble α-DG (receptor)
chain: HWPSEPSEAVRDWENQLEASMHSVLSDLHEALPTVVGIPDGTAVVGRSFRVTIPTDLIGSSGEVIKVSTAGKEVLPSWLHWDPQSHTLEGLPLDTDKGVHYISVSAAQLDANGSHIPQTSSVFSIEVYPEDHSEPQSVRAASPDLGEAAASACAAEEPVTVLTVILDADLTKMTPKQRIDLLHRMQSFSEVELHNMKLVPVVNNRLFDMSAFMAGPGNAKKVVENGALLSWKLGCSLNQNSVPDIRGVEAPAREGTMSAQLGYPVVGWHIANKKPPLPKRIRRQIHATPTPVTAIGPPTTAIQEPPSRIVPTPTSPAIAPPTETMAPPVRDPVPGKPTVTTRTRGAIIQTPTLGPIQPTRVSDAGTVVSGQIRATVTIPGYVEPTAVATPPTTTTKKPRVSTPKPATPSTDSSATTTRRPTKKPRTPRPVPRVTTKAPITRLETASPPTRIRTTTSGVPRGGEPNQRPELKNHIDRVDAWVGTYFEVKIPSDTFYDKEDTTTDKLKLTLKLREQQLVGEKSWVQFNSNSQLMYGLPDSSHVGKHEYFMHATDKGGLSAVDAFEIHVHKRPQGDKAPARFKAKFVGDPAPVVNDIHKKIALVKKLAFAFGDRNCSTVTLQNITRG
B1 returned a concentration of soluble α-DG needed to block virus binding to α-DG cells in assay [2] greater than 400 nM. Also, in assay [3], the concentration of soluble α-DG for 33% blocking of virus binding to α-DG cells lay in the range of 1 to 4 nM.
